Each block holds one substance with its values, some of them ahead of it.
Assays:
[1] = molecular target: strep-tagged soluble domain of the MtrA subunit (M1 - S168), RED labeled (Methanosarcina mazei) (UniProt O59640); experiment: MST
[2] = molecular target: MtrR-His6 constitutively expressed in M. mazei (pRS2087) (Methanosarcina mazei Gö1); experiment: IMAC purification and western blot
[3] = molecular target: MtrR, endogenous in M. mazei (Methanosarcina mazei (endogenous in M. mazei)); experiment: western blot of the strep-tactin eluate

UniProt O59640, sequence (O59640 1-168): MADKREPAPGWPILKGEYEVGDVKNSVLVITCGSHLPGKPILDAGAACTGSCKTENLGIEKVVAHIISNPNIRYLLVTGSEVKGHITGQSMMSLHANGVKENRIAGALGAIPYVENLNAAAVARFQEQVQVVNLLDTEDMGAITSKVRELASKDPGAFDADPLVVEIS

Kd [1]: 110 nM
Substance: MtrR-His6 (small protein MtrR encoded by small ORF16, C-terminal his-tag), heterologously expressed in E. coli (natural protein)

stoichiometry N [2]: 2
Substance: MtrR-His6 constitutively expressed in M. mazei (pRS2087) (natural protein)

stoichiometry N [3]: 2
Substance: MtrR, endogenous in M. mazei (natural protein)

Source: publication doi:10.1101/2025.05.30.657017
